{
  "source": "patent US20140378381A1",
  "about": "(LATITUDE PHARMACEUTICALS, INC., priority 2011, published 2014)",
  "origin": "cited, not measured here",
  "key": {"[1]": {"details": "after injection"}},
  "data": [
    {"substance": "glucagon", "values": [
      {"measurement": "glucagon decomposed into degradation products", "setting": "acidic solution (pH 2-4), 24 hours at 37° C.", "result": "5-70%"},
      {"measurement": "aggregation in aqueous solution", "setting": "aqueous solutions of pH 3 or less", "result": "aggregate to form a gel within an hour"},
      {"measurement": "solubility in water", "setting": "physiological pH (pH 4-8)", "result": "insoluble"},
      {"measurement": "onset of action", "setting": "[1]", "result": "5 to 20", "unit": "min"}
    ]}
  ]
}
